From patent publication US8871276B2, “Beta-casein assemblies for mucosal delivery of therapeutic bioactive agents” (Technion Research and Development Foundation Ltd., priority 2008, dated 2014)

Legend:
Cryo-TEM of micelles = format: physicochemical
Protocol: Specimens were prepared either in an automated vitrification device (Vitrobot, FEI, The Netherlands) or in the controlled environment vitrification system (CEVS) (Bellare et al. Electron Microsc. Technique, 1988, 10; 87-111) at 24° C. and 100% relative humidity to avoid loss of volatiles. Using the latter, the solutions were incubated in the CEVS at the desired temperature for 1 h. Then, a 7 μL drop of each solution was placed on a TEM copper grid covered with a perforated carbon film (Pelco International) and blotted with filter paper to form a thin liquid film of the sample (100-200 nm thick). The thinned sample was plunged into liquid ethane at its freezing temperature (−183° C.) to form a vitrified specimen and then transferred to liquid nitrogen ([…]) for storage. Some of the vitrified specimens were examined in a Philips CM120 transmission electron microscope. (Philips, The Netherlands) operating at an accelerating voltage of 120 kV. An Oxford CT3500 (Oxford Instruments) cryo-specimen holder that maintained the specimens below −175° C. during sample transfer and observation Other specimens were examined in a Tecnai 12 G2 TEM (FEI) using a Gatan 626 cryo-holder. Specimens were studied in a low-dose imaging mode to minimize beam exposure and electron beam radiation damage.
Images were recorded digitally on a cooled Gatan MultiScan 791 CCD camera using DigitalMicrograph 3.1 software (Gatan) in the low-dose imaging mode to minimize beam exposure and electron-beam radiation damage. Alternatively, images were recorded in the Tecnai on a high-resolution 2 k×2 k Ultrascan 1000 cooled CCD (Gatan, UK), using the Digital Micrograph 3.6 software (Gatan, UK).
The structural characteristics of the micelles in the two pH environments were studied by cryo-TEM and SAXS (Small Angle X-ray Scattering). Cryo-TEM was used to determine the shape of the micelles and to estimate their dimensions between 4 and 40° C. This information was further used to accurately calculate the micelles' dimensions from the SAXS data, and to study how the size and shape are affected by temperature. […]

[1] = Small angle X-ray scattering (SAXS) of micelles; format: physicochemical
Protocol: The small angle X-ray scattering equipment consisted of a SAXSess camera (Anton-Paar, Graz, Austria) connected to an X-ray generator (Philips, PW 1730/10) operating at 40 kV and 50 mA with a sealed-tube Cu anode. A Gael mirror was used to convert the divergent polychromatic X-ray beam into a focused line-shaped beam of Cu Kα radiation (λ=0.154 nm). The 2D scattering pattern was recorded by a PI-SCX fused fiber optic taper CCD camera from Princeton Instruments, which is a division of Roper Scientific, Inc. (Trenton, N.J., USA). The used CCD detector features a 2084×2084 array with 24×24 μm pixel size (chip size: 50×50 mm). The CCD was operated at −30° C. with 10° C. water-assisted cooling to reduce the thermally generated charge. Cosmic ray correction and background subtraction were performed on the 2D image before further data processing. The 2D image was integrated into the one-dimensional scattering function within a band of 10 mm. The measurement time was 30 min for each scattering curve (6 images of 5 minutes were taken to assist the cosmic ray correction).
The molecular weight of the scattering aggregates were calculated according to Eq. 1:
[formula] where M is the molecular weight, dΣ(0)/dΩ (cm^−1) the forward scattering intensity at q=0, c (g/cm^3) the β-casein concentration, NA the Avogadro number, and ΔρM (cm/g) the scattering length difference per mass, given by: ΔρM=Δρ ν (2)
The scattering length difference Δρ (cm^−2) was calculated using the known chemical composition of the protein and the solvent, and ν (cm^3/g), the specific volume of the protein in the solution that was calculated via density measurement of the solvent and the solution. The micelle aggregation number was then calculated by dividing the molecular weight of the micelles determined with Eq. 1, by the molecular weight of a single protein molecule.
For a particle of arbitrary shape with a scattering density difference of Δρ(r), the pair distance distribution function p(r) (PDDF) is given by: p(r)=r^2Δ ρ^2(r) (3) where Δ ρ^2(r) is the convolution square of Δρ(r) averaged for all directions in space. The PDDF is related to the scattered intensity l(q) by a Fourier transformation, and it enables the determination of the overall shape and size of the scattering objects.
[formula] λ is the wavelength of the incident radiation and θ is the angle between the scattered and incident beam. The function ƒ(r)=p(r)/r (6) is useful to identify flat plate-like particles, although it has no direct physical meaning. For lamellae, this function starts with a linearly increasing part and becomes almost flat when r is equal to the thickness of the lamella. For flat particles with a finite base area, the outer part decreases linearly because of boundary losses. The thickness of the lamella can then be read from the transition point.
The structural characteristics of the micelles in the two pH environments were studied by cryo-TEM and SAXS (Small Angle X-ray Scattering). Cryo-TEM was used to determine the shape of the micelles and to estimate their dimensions between 4 and 40° C. This information was further used to accurately calculate the micelles' dimensions from the SAXS data, and to study how the size and shape are affected by temperature. SAXS measurements also provided the critical micelle concentration (CMC) and the micelle aggregation numbers as a function of temperature. Experiments were performed in the concentration range of 0.1-40 mg/mL protein, at low pH (between 2.1 and 2.6) in dilute lactic acid solution (6 wt %) or HCl and in aqueous solutions at pH 6.7-7.3 in absence of salts or the presence of up to 0.1M NaCl.
SAXS measurements were used to determine the shape and dimensions of the micelles at low pH more precisely, and to evaluate the micelle molecular weight (i.e., the aggregation number). The scattering curves of 20 mg/mL β-casein in lactic acid solution (pH 2.6, IS 0.0022) at different temperatures are shown in FIG. 3a. […]

[2] = lactic acid solution pH 2.6, 4-40 °C
[3] = 1 wt % β-casein, empty or loaded 1:8 protein:celecoxib, pH ~7

B1: β-casein: bovine β-casein self-assembled into unloaded micelles in acidic or neutral buffer (protein, UniProt P02666 16-224, looked up)
Beta-casein: RELEELNVPGEIVESLSSSEESITRINKKIEKFQSEEQQQTEDELQDKIHPFAQTQSLVYPFPGPIPNSLPQNIPPLTQTPVVVPPFLQPEVMGVSKVKEAMAPKHKEMPFPKYPVEPFTESQSLTLTDVENLHLPLPLLQSWMHQPHQPLPPTVMFPPQSVLSLSQSKVLPVPQKAVPYPQRDMPIQAFLLYQEPVLGPVRGPFPIIV
modifications: self-assembled micelles
notes: bovine β-casein self-assembled into unloaded micelles in acidic or neutral buffer
Cryo-TEM of micelles; hepes buffer pH ~7
  Maximum dimension of empty micelles (cryo-TEM): about 22 nm
Cryo-TEM of micelles; [2]
  Micelle surface length (cryo-TEM): 20-25 nm
  Micelle thickness (cryo-TEM): 3-4 nm
[1]; 20 mg/mL, pH 2.6, all temperatures 4-40 °C
  Maximum micelle dimension (SAXS PDDF): 35-40 nm
[1]; [3]
  Rg (from Guinier apr.): 7.8 nm
  V, from a, b: 2410 nm^3
[1]; pH 2.6, 4-40 °C
  Micelle Dimensions: diameter: 25 nm in
[1]; pH 2.6, 4 °C
  Micelle Shape: disc
  Nagg: 8
[1]; pH 2.6, 4 °C, concentrations of 0.5 wt % and below
  Nagg: approximately 2
[1]; pH 2.6, 16 °C
  Micelle Shape: disc
  Nagg: 10
[1]; pH 2.6, 25 °C
  Micelle Shape: disc
  Nagg: 11
[1]; pH 2.6, 25 °C, by SAXS
  CMC: 0.1-0.2 wt %
[1]; pH 2.6, 40 °C
  Micelle Shape: disc
  Nagg: 9
